Assay results taken from publication PMC5826061.

What follows are sequences tested against T1, GlnR (Streptomyces coelicolor) (UniProt Q05943) (assay: DNase I footprinting). Details: 50 mM Tris-HCl pH 8.0, 100 mM KCl, 2.5 mM MgCl2, 1 mM DTT, 10% glycerol; EMSA in 20 ul with 100 ng/ul sheared salmon sperm DNA, room temperature, 20 min ….
T1 sequence: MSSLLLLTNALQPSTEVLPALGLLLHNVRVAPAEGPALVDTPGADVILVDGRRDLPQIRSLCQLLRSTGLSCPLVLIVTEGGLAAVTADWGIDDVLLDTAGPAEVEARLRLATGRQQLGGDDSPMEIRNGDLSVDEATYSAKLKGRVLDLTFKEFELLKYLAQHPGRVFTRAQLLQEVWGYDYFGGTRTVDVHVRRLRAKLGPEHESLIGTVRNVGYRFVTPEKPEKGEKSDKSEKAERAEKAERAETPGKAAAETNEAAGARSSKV

Row | Sequence | binding
1 | GTAAAACGACGGCCAGTCCATGCCAGGTCATTCGGAGGCCGCCGCGGCCGGCTTGCGTTCCGGGCCGGACGGCCCGGGCACGACGACGACCGGCCCCGGCCGTTCACCCACGCGTAACACGCACCGTGCCTTCGTCACGGCGGCGAAACAACGAGGGGCTTCCACCGAAACCGCGCTGCGTCAATGTCGTGGCGCATAACCGGCCCACCCCTCACCGCCCGCCCGCCAGGCTTCGCCCCCACGGGGCCGCACCAACGACGAGGAGACGCCGATGTCTAGATTTTT (double strand) [amtB promoter WT footprint probe] | binds
2 | GTAAAACGACGGCCAGTCCATGCCAGGTCATTCGGAGGCCGCCGCGGCCGGCTTGCGTTCCGGGCCGGACGGCCCGGGCACGACGACGACCGGCCCCGGCCGTTCACCCACGCGTAACACGCACCGTGCCTTCGTCACGGCGGCGAAACAACGAGAAATCTCCACCGAAACCGCGCTGCGTCAATGTCGTGGCGCATAACCGGCCCACCCCTCACCGCCCGCCCGCCAGGCTTCGCCCCCACGGGGCCGCACCAACGACGAGGAGACGCCGATGTCTAGATTTTT (double strand) [amtB promoter a2m footprint probe] | binds
3 | GTAAAACGACGGCCAGTCCATGCCAGGTCATTCGGAGGCCGCCGCGGCCGGCTTGCGTTCCGGGCCGGACGGCCCGGGCACGACGACGACCGGCCCCGGCCGTTCACCCACGCGTAACACGCAGGGGCTTCCACCGAAACCGCGCTGCGTCAATGTCGTGGCGCATAACCGGCCCACCCCTCACCGCCCGCCCGCCAGGCTTCGCCCCCACGGGGCCGCACCAACGACGAGGAGACGCCGATGTCTAGATTTTT (double strand) [amtB promoter m3 footprint probe] | binds
